From PMC7913698, “RPA complexes in Caenorhabditis elegans meiosis; unique roles in replication, meiotic recombination and apoptosis” (Nucleic Acids Research, 2021) come the findings set out here.

Assay in all cases: single-molecule pull-down (SiMPull, TIRF microscopy); whole worm lysate of the triple-tagged strain; biotinylated antibody against the tag of one subunit (anti-OLLAS, anti-FLAG or anti-MYC) tethered to the neutravidin surface captures complexes; Cy3- and Cy5-labelled antibodies against the tags detect the subunits; track counts after wash, summed over fields of view; controls: Pre-Ab and untagged wild-type lysate

Series [1] has as its target 3XFLAG::RPA-2 (C. elegans) (UniProt Q95Y97).
The target of series [2] is MYC::RPA-4 (C. elegans).
The target in series [3] is OLLAS::RPA-1 (C. elegans) (UniProt Q19537).
Series [4] concerns the molecule itself.

As to MYC::RPA-4 (natural protein), the pulldown counts in series [1] came out at 206 counts; in series [2], 2300 counts; in series [3], 1810 counts.

B1: OLLAS::RPA-1 (natural protein, C. elegans, UniProt Q19537 1-655, looked up)
chain: MAAIHINHDVFNKYHTNGKLRLTTGYVQEAIENNGYPGHDGIVQVLKGKVEQGEQLGHAFTFRIRISDGVFQYNALMSADIDDQIKREVEHLVEGTIIALTKFEIYDQGEGAKNCFLIKGYKILSRYHQVLTSPEVKPRSHSGKPDEHKGYRPNIIIEDVWPEAEGMAADYQENMANPPAAKAPKREFGEEASYNRAAAPEATRARAVPPPARRTASNTERGVMPIAMVTPYVSNFKIHGMVSRKEEIRTFPAKNTKVFNFEITDSNGDTIRCTAFNEVAESLYTTITENLSYYLSGGSVKQANKKFNNTGHDYEITLRSDSIIEAGGELLAAPKLILKRVKLGEIAGYAGQLIDVLVVVEKMDPEATEFTSKAGKSLIKREMELIDESGALVRLTLWGDEATKALVDDYVQKVIAFKGVIPREFNGGFSLGTGSATRIISVPEIAGVSELYDWYANVKPTTEVKMMSQAAGGSNEAPRTIAGLQEMQFGKDSDKGDYATVKAMITRVNPTNALYRGCASEGCQKKLVGENGDYRCEKCNKNMNKFKWLYMMQFELSDETGQVYVTAFGDSAAKIVGKSAAELGELHDESPDEYNAIFERLQFVPKMWRLRCKMDSYNEEVRQKMTVYGVDDVNQDKYIENLKQMIEQMQQMSDY
notes: also called OLLAS-tagged RPA-1; CeRPA large subunit; source: endogenous locus tagged by CRISPR/Cas9, C. elegans whole worm lysate; not shown: OLLAS, N-terminal, kept
In the case of B1, the pulldown counts is 100 counts in series [2] and 1060 counts in series [4].

B2: 3XFLAG::RPA-2 (natural protein, C. elegans, UniProt Q95Y97 1-288, looked up)
chain: MWNETVEHENAGNGWAAGESSFMTDRKPDSKATTLGERLPVPVTISNLIEHFSAQDDKYVVGTFRFATVLTVGIVKDISQDGTTYTYDLCDPNNTEMEYRTLKYDNEGSTFDHSSIVEGTRVRAIGKLKGFDGNNTIMLFNITPVEDDKDFTIFELEAEAARLFFQKNVSEKLKSVDSDGFQGMLAPPKSRMSQTSHQSSQGSDTKERLYAQPQKVMTGANQGDVLRERITAVLMAVPEGSRDEGRHVSWIAEQIQETNISIVRKCVGEMVENGLVYTTVDEETVSAI
notes: also called 3XFLAG-tagged RPA-2; source: endogenous locus tagged by CRISPR/Cas9, C. elegans whole worm lysate; not shown: 3xFLAG, N-terminal, kept
For B2, the pulldown counts in series [4] is 724 counts.
